Experimental findings from publication doi:10.1101/2024.12.23.630085, “Accurate sequence-to-affinity models for SH2 domains from multi-round peptide binding assays coupled with free-energy regression” (bioRxiv, 2025) are described below.

Non-standard residues stand in square brackets, D forms with d. *: point of attachment. FITC = O=C1OC2(c3ccc(O)cc3Oc3cc(O)ccc32)c2ccc(NC(=S)*)cc21; pY = N[C@@H](Cc1ccc(OP(=O)(O)O)cc1)C(=O)O; Ahx = NCCCCCC(=O)O

What all share (conditions): both partners purified
The target of one experiment is T1, Fyn SH2 domain (142-248) (human, UniProt P06241 142-248, biotin (on the AviTag)).
T1 construct: SH2 domain of human Fyn kinase, residues 142-248; source: E. coli C43(DE3) with BirA helper plasmid, purified (HisTrap, anion exchange, Ulp1 cleavage, SEC); not shown: His6-SUMO, N-terminal, cleaved; AviTag, C-terminal, kept
T1 sequence (P06241 142-248): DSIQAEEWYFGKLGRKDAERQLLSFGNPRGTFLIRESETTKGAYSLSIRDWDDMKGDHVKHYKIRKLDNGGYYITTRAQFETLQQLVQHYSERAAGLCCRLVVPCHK
Description: fluorescence polarisation; competition mode; unlabelled phosphopeptide against 0.4 nM FITC-Ahx-GDG-pY-EEISPLLL-NH2 and 4.125 nM Fyn SH2, as printed (Tables S3 and S5). Background: In fluorescence polarisation assays a small probe gives low polarisation when free and higher when bound to something large.

In another experiment the target is T2, Lyn SH2 domain (121-228) (human, UniProt P07948 121-228, biotin (on the AviTag)).
T2 construct: source: E. coli C43(DE3) with BirA helper plasmid, purified (HisTrap, anion exchange, Ulp1 cleavage, SEC); not shown: His6-SUMO, N-terminal, cleaved; AviTag, C-terminal, kept
T2 sequence (P07948 121-228): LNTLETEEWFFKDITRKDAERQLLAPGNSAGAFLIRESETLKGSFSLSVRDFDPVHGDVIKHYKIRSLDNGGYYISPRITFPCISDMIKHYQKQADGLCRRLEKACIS
Description: fluorescence polarisation; competition mode; unlabelled phosphopeptide against 30 nM FITC-Ahx-GDG-pY-EEISPLLL-NH2 and 106.5 nM Lyn SH2 (Table S3).

The target in a further experiment is T3, c-Src SH2 domain (UniProt P12931-1 151-248, biotin (biotinylated SH2 domain of the selection)).
T3 construct: SH2 domain of c-Src kinase; source: purified
The experiment is described as follows: fluorescence polarisation; competition mode; unlabelled phosphopeptide against 30 nM FITC-Ahx-GDG-pY-EEISPLLL-NH2 and 122.745 nM c-Src SH2 (123.745 to 125.745 in three rows; Table S3).

B1: Syn-F-1 (synthetic) (peptide)
peptide: Ac-QLHVHP[pY]EKVEDG-NH2
SMILES: CC(=O)N[C@@H](CCC(N)=O)C(=O)N[C@@H](CC(C)C)C(=O)N[C@@H](Cc1c[nH]cn1)C(=O)N[C@H](C(=O)N[C@@H](Cc1c[nH]cn1)C(=O)N1CCC[C@H]1C(=O)N[C@@H](Cc1ccc(OP(=O)(O)O)cc1)C(=O)N[C@@H](CCC(=O)O)C(=O)N[C@@H](CCCCN)C(=O)N[C@H](C(=O)N[C@@H](CCC(=O)O)C(=O)N[C@@H](CC(=O)O)C(=O)NCC(N)=O)C(C)C)C(C)C
notes: source: synthetic peptide (SynPeptide, China)
By Kd is commonly meant the concentration at which binding is half-saturated. Low readings indicate tighter binding, high ones weaker binding. As to B1, in the experiment with Fyn SH2 domain (142-248), binding was put at a Kd of 30.2 nM. That is a double-digit nanomolar value.

B2: CLIP2 pY972 (peptide)
peptide: Ac-QSDQRR[pY]SLIDRG-NH2
SMILES: CC[C@H](C)[C@H](NC(=O)[C@H](CC(C)C)NC(=O)[C@H](CO)NC(=O)[C@H](Cc1ccc(OP(=O)(O)O)cc1)NC(=O)[C@H](CCCNC(=N)N)NC(=O)[C@H](CCCNC(=N)N)NC(=O)[C@H](CCC(N)=O)NC(=O)[C@H](CC(=O)O)NC(=O)[C@H](CO)NC(=O)[C@H](CCC(N)=O)NC(C)=O)C(=O)N[C@@H](CC(=O)O)C(=O)N[C@@H](CCCNC(=N)N)C(=O)NCC(N)=O
notes: flank added to the 11-residue stretch (surmised: last residue of the library's constant GQSGQ); CLIP2, human, around pY972; flank added to the 11-residue stretch (surmised: first residue of the library's constant GGQSG); source: synthetic peptide (SynPeptide, China)
Take B2: the equilibrium dissociation constant (Kd) with Fyn SH2 domain (142-248) is 78.5 nM.

B3: CLIP2 pY972 R977P (peptide)
peptide: Ac-QSDQRR[pY]SLIDPG-NH2
SMILES: CC[C@H](C)[C@H](NC(=O)[C@H](CC(C)C)NC(=O)[C@H](CO)NC(=O)[C@H](Cc1ccc(OP(=O)(O)O)cc1)NC(=O)[C@H](CCCNC(=N)N)NC(=O)[C@H](CCCNC(=N)N)NC(=O)[C@H](CCC(N)=O)NC(=O)[C@H](CC(=O)O)NC(=O)[C@H](CO)NC(=O)[C@H](CCC(N)=O)NC(C)=O)C(=O)N[C@@H](CC(=O)O)C(=O)N1CCC[C@H]1C(=O)NCC(N)=O
notes: flank added to the 11-residue stretch (surmised: last residue of the library's constant GQSGQ); CLIP2, human, around pY972, natural variant R977P; flank added to the 11-residue stretch (surmised: first residue of the library's constant GGQSG); source: synthetic peptide (SynPeptide, China)
In the experiment with Fyn SH2 domain (142-248), B3 yielded a Kd of 27 nM.

B4: TRAF3IP3 pY322 (peptide)
peptide: Ac-QEWRSQ[pY]EALKEG-NH2
notes: flank added to the 11-residue stretch (surmised: last residue of the library's constant GQSGQ); TRAF3IP3, human, around pY322; flank added to the 11-residue stretch (surmised: first residue of the library's constant GGQSG); source: synthetic peptide (SynPeptide, China)
With B4, the dissociation constant (Kd) with Lyn SH2 domain (121-228) is 3940 nM; in the experiment with c-Src SH2 domain, 6480 nM.

B5: CSF1R pY699 (peptide)
peptide: Ac-QEGGVD[pY]KNIHLG-NH2
SMILES: CC[C@H](C)[C@H](NC(=O)[C@H](CC(N)=O)NC(=O)[C@H](CCCCN)NC(=O)[C@H](Cc1ccc(OP(=O)(O)O)cc1)NC(=O)[C@H](CC(=O)O)NC(=O)[C@@H](NC(=O)CNC(=O)CNC(=O)[C@H](CCC(=O)O)NC(=O)[C@H](CCC(N)=O)NC(C)=O)C(C)C)C(=O)N[C@@H](Cc1c[nH]cn1)C(=O)N[C@@H](CC(C)C)C(=O)NCC(N)=O
notes: flank added to the 11-residue stretch (surmised: last residue of the library's constant GQSGQ); CSF1R, human, around pY699; flank added to the 11-residue stretch (surmised: first residue of the library's constant GGQSG); also called CSFR pY699; source: synthetic peptide (SynPeptide, China)
In the case of B5, binding with Lyn SH2 domain (121-228) was put at a Kd of 22800 nM.

B6: Syn-F-2 (synthetic) (peptide)
peptide: Ac-QMEKHV[pY]ESVTQG-NH2
SMILES: CSCC[C@H](NC(=O)[C@H](CCC(N)=O)NC(C)=O)C(=O)N[C@@H](CCC(=O)O)C(=O)N[C@@H](CCCCN)C(=O)N[C@@H](Cc1c[nH]cn1)C(=O)N[C@H](C(=O)N[C@@H](Cc1ccc(OP(=O)(O)O)cc1)C(=O)N[C@@H](CCC(=O)O)C(=O)N[C@@H](CO)C(=O)N[C@H](C(=O)N[C@H](C(=O)N[C@@H](CCC(N)=O)C(=O)NCC(N)=O)[C@@H](C)O)C(C)C)C(C)C
notes: as for B1
In turn, B6 returned a dissociation constant Kd with Fyn SH2 domain (142-248) of 18.3 nM.

B7: SIGLEC5 pY544 (peptide)
peptide: Ac-QPSTTE[pY]SEIKTG-NH2
notes: flank added to the 11-residue stretch (surmised: last residue of the library's constant GQSGQ); SIGLEC5, human, around pY544; flank added to the 11-residue stretch (surmised: first residue of the library's constant GGQSG); source: synthetic peptide (SynPeptide, China)
For the molecule B7, the values for the dissociation constant Kd in the experiment with Lyn SH2 domain (121-228) and in the experiment with c-Src SH2 domain were 362 nM and 282 nM, respectively.

B8: SLAP-130 pY771 (peptide)
peptide: Ac-QNDGEI[pY]DDIADG-NH2
notes: flank added to the 11-residue stretch (surmised: last residue of the library's constant GQSGQ); SLAP-130, human, around pY771; flank added to the 11-residue stretch (surmised: first residue of the library's constant GGQSG); source: synthetic peptide (SynPeptide, China)
Consider B8, for which the Kd in the experiment with Lyn SH2 domain (121-228) came out at 96.8 nM; with c-Src SH2 domain, 94 nM.

B9: PTPN6 pY564 (peptide)
peptide: Ac-QHKEDV[pY]ENLHTG-NH2
notes: flank added to the 11-residue stretch (surmised: last residue of the library's constant GQSGQ); PTPN6 (SHP1), human, around pY564; flank added to the 11-residue stretch (surmised: first residue of the library's constant GGQSG); also called SHP1 pY564; source: synthetic peptide (SynPeptide, China)
On to B9, for which the Kd with Lyn SH2 domain (121-228) came to 943 nM; with c-Src SH2 domain, 909 nM.

B10: FITC-Ahx-GDG-pY-EEISPLLL-NH2 (peptide)
peptide: {FITC-Ahx}-GDG[pY]EEISPLLL-NH2
SMILES: CC[C@H](C)[C@H](NC(=O)[C@H](CCC(=O)O)NC(=O)[C@H](CCC(=O)O)NC(=O)[C@H](Cc1ccc(OP(=O)(O)O)cc1)NC(=O)CNC(=O)[C@H](CC(=O)O)NC(=O)CNC(=O)CCCCCNC(=S)Nc1ccc2c(c1)C(=O)OC21c2ccc(O)cc2Oc2cc(O)ccc21)C(=O)N[C@@H](CO)C(=O)N1CCC[C@H]1C(=O)N[C@@H](CC(C)C)C(=O)N[C@@H](CC(C)C)C(=O)N[C@@H](CC(C)C)C(N)=O
notes: fluorescent probe, c-Src SH2 consensus peptide; also called c-Src SH2 consensus; source: synthetic peptide (SynPeptide, China)
As to B10, the binding result in the experiment with Lyn SH2 domain (121-228) and with Fyn SH2 domain (142-248) was “binds” throughout.

B11: PLCG2 pY 753 (peptide)
peptide: Ac-QDINSL[pY]DVSRMG-NH2
notes: flank added to the 11-residue stretch (surmised: last residue of the library's constant GQSGQ); PLCG2, human, around pY753; flank added to the 11-residue stretch (surmised: first residue of the library's constant GGQSG); also called PLCγ2 pY753; source: synthetic peptide (SynPeptide, China)
Turning to B11, the results for the Kd with Lyn SH2 domain (121-228) and with c-Src SH2 domain were 11700 nM and 12300 nM, respectively.

B12: CD3Z pY83 (peptide)
peptide: Ac-QGRREE[pY]DVLDKG-NH2
SMILES: CC(=O)N[C@@H](CCC(N)=O)C(=O)NCC(=O)N[C@@H](CCCNC(=N)N)C(=O)N[C@@H](CCCNC(=N)N)C(=O)N[C@@H](CCC(=O)O)C(=O)N[C@@H](CCC(=O)O)C(=O)N[C@@H](Cc1ccc(OP(=O)(O)O)cc1)C(=O)N[C@@H](CC(=O)O)C(=O)N[C@H](C(=O)N[C@@H](CC(C)C)C(=O)N[C@@H](CC(=O)O)C(=O)N[C@@H](CCCCN)C(=O)NCC(N)=O)C(C)C
notes: flank added to the 11-residue stretch (surmised: last residue of the library's constant GQSGQ); CD3 zeta chain, human, around pY83; flank added to the 11-residue stretch (surmised: first residue of the library's constant GGQSG); also called CD3ζ pY83; source: synthetic peptide (SynPeptide, China)
The molecule B12 came in with a Kd with Lyn SH2 domain (121-228) of 2950 nM.
